Reference: paper PMC11161628, “Omecamtiv mecarbil and Mavacamten target the same myosin pocket despite opposite effects in heart contraction” (Nature Communications, 2024)

Molecular target: the molecule itself
Assay: crystal structure; PPS-S1-Mava (crystal type B): S1 with Mg.ADP.BeFx and 5 mM Mavacamten, trypsin 1:500 (w:w), hanging drop at 4 °C, 20.5% PEG3350, 7.5% NaTacsimate pH 6.0, 5 mM TCEP; two molecules per asymmetric unit; 2.61 Å

B1: Bovine β-cardiac myosin S1 fragment, heavy chain (domain or fragment, UniProt Q9BE39 1-810, looked up)
chain: MVDAEMAAFGEAAPYLRKSEKERLEAQTRPFDLKKDVFVPDDKEEFVKATILSREGGKVTAETEHGKTVTVKEDQVLQQNPPKFDKIEDMAMLTFLHEPAVLYNLKERYASWMIYTYSGLFCVTINPYKWLPVYNAEVVAAYRGKKRSEAPPHIFSISDNAYQYMLTDRENQSILITGESGAGKTVNTKRVIQYFAVIAAIGDRSKKEQATGKGTLEDQIIQANPALEAFGNAKTVRNDNSSRFGKFIRIHFGATGKLASADIETYLLEKSRVIFQLKAERDYHIFYQILSNKKPELLDMLLITNNPYDYAFISQGETTVASIDDAEELMATDNAFDVLGFTTEEKNSMYKLTGAIMHFGNMKFKLKQREEQAEPDGTEEADKSAYLMGLNSADLLKGLCHPRVKVGNEYVTKGQNVQQVVYAKGALAKAVYERMFNWMVTRINATLETKQPRQYFIGVLDIAGFEIFDFNSFEQLCINFTNEKLQQFFNHHMFVLEQEEYKKEGIEWEFIDFGMDLQACIDLIEKPMGIMSILEEECMFPKATDMTFKAKLFDNHLGKSSNFQKPRNIKGKPEAHFSLIHYAGTVDYNIIGWLQKNKDPLNETVVDLYKKSSLKMLSSLFANYAGFDTPIEKGKGKAKKGSSFQTVSALHRENLNKLMTNLRSTHPHFVRCIIPNETKSPGVIDNPLVMHQLRCNGVLEGIRICRKGFPNRILYGDFRQRYRILNPAAIPEGQFIDSRKGAEKLLGSLDIDHNQYKFGHTKVFFKAGLLGLLEEMRDERLSRIITRIQAQSRGVLSRMEFKKLLERRDS
notes: Native protein cut by proteases, not a recombinant construct; also called bovine cardiac S1 fragment; PPS-S1-Mava; source: purified from frozen bovine heart (Pel-Freez Biologicals); limited chymotryptic digestion of the full-length myosin, Mono-Q; trypsin present in the crystallization drops
Q: Does B1 bind?
A: binds
